Data taken from patent US20260092115A1 (Chugai, published 2026).
Changes are numbered by the printed parent chain.

Legend:
[1] = target: T1, human FcγRIIb extracellular domain, His-tagged (human, UniProt P31994 43-217); assay: binding amount of this antibody divided by that of 04H1637-G1m/04L1610-lam1; SPR pH 7.4
T1 construct: extracellular domain; also called hFcγR IIb
T1 sequence (looked up): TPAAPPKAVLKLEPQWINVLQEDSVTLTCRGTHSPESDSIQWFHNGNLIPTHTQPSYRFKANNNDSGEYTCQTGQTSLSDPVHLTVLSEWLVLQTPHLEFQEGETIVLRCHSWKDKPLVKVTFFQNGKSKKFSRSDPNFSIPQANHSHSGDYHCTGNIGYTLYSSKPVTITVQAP
Procedure: (§1) The interaction between the generated antibodies and human FcγRs was analyzed by the following method using Biacore T200. 50 mM Na-Phosphate, 150 mM NaCl, 0.05% Tween20 (pH 7.4) was used as the running buffer, and the assay was performed at 25° C. For the sensor chips, Series S SA (GE Healthcare) chips onto which CaptureSelect Human Fab-lambda Kinetics Biotin Conjugate (Thermo Fisher Scientific) was immobilized were used. The antibodies of interest were captured onto these chips and each FcγR diluted in the running buffer was allowed to interact with them. Chips were regenerated with 10 mM Glycine-HCl (pH 1.5) and 25 mM NaOH, and assay was performed by repeatedly capturing antibodies. The dissociation constants KD (mol/L) for FcγRs of each antibody were calculated using Biacore T200 Evaluation Software 2.0, using the 1:1 Langmuir binding model for FcγRIa and FcγRIIIa and the steady state affinity model for FcγRIIa. For FcγRIIb, the binding amount of FcγRIIb per unit amount of antibody was calculated by correcting the binding amount of FcγRIIb obtained from the sensorgram obtained by the measurement with the amount of antibody captured onto the chip surface.
(§2) “Relative value to KD between G1m and hFcRn” and “Relative value to KD between G1m and hFcγRs” are values obtained by dividing the KD value of 04H1637-G1m/04L1610-lam1 for hFcRn and for each FcγR by the KD value of each variant, respectively. “Relative binding amount” indicates the value obtained by dividing the binding amount of each variant to FcγRIIb by the binding amount of 04H1637-G1m/04L1610-lam1. […] It was shown that all of the generated heterodimerized antibodies had enhanced binding to FcγRIIa and FcγRIIIa as compared with 04H1637-G1m/04L1610-lam1 which has the constant region of native human IgG1.

[2] = target: T1, human FcγRIIb extracellular domain, …; assay: SPR Biacore T200, 25C, pH 7.4; FcγRIIb at 1000 nM, corrected by captured antibody
Procedure: as §1

human FcRn = target: T2, human FcRn (human, UniProt P55899 24-290; P61769 21-119); assay: KD of 04H1637-G1m/04L1610-lam1 divided by KD of this antibody; SPR pH 6.0
T2 construct: Prepared by the method of WO 2010/107110; also called hFcRn
Procedure: The interaction between the generated antibodies and human FcRn was analyzed by the following method using Biacore T200. 50 mM Na-Phosphate, 150 mM NaCl, 0.05% Tween20 (pH 6.0) was used as the running buffer, and the assay was performed at 25° C. For the sensor chip, Series S SA (GE Healthcare) chips onto which CaptureSelect Human Fab-lambda Kinetics Biotin Conjugate (Thermo Fisher Scientific) was immobilized were used. The antibodies of interest were captured onto these chips and FcRn diluted in the running buffer was allowed to interact with them. Chips were regenerated with 10 mM Glycine-HCl (pH 1.5) and 25 mM NaOH, and assay was performed by repeatedly capturing antibodies. The dissociation constant for FcRn of each antibody was calculated using the steady state model, using Biacore T200 Evaluation Software 2.0.
“Relative value to KD between G1m and hFcRn” and “Relative value to KD between G1m and hFcγRs” are values obtained by dividing the KD value of 04H1637-G1m/04L1610-lam1 for hFcRn and for each FcγR by the KD value of each variant, respectively. “Relative binding amount” indicates the value obtained by dividing the binding amount of each variant to FcγRIIb by the binding amount of 04H1637-G1m/04L1610-lam1. […] It was shown that all of the generated heterodimerized antibodies had enhanced binding to FcγRIIa and FcγRIIIa as compared with 04H1637-G1m/04L1610-lam1 which has the constant region of native human IgG1. Furthermore, 04H1637-Kn462/04L1610-lam1//04H1637-H1441/04L1610-lam1, 04H1637-Kn462/04L1610-lam1//04H1637-H1445/04L1610-lam1, and 04H1637-Kn461/04L1610-lam1//04H1637-H1443/04L1610-lam1 were all shown to have enhanced binding to FcγRIIa compared to 04H1637-Kn125/04L1610-lam1//04H1637-H1076/04L1610-lam 1 which has the Fc region variant reported in WO 2013/002362.

[3] = target: T3, human FcγRIIIa, allotype V158, extracellular domain, His-tagged (human, UniProt P08637 17-208); assay: KD of 04H1637-G1m/04L1610-lam1 divided by KD of this antibody; SPR pH 7.4
T3 construct: extracellular domain; also called hFcγR IIIa V
Procedure: as §1, §2

[4] = target: T4, human FcγRIIa, type H, extracellular domain, His-tagged (human, UniProt P12318 34-217); assay: as above
T4 construct: extracellular domain; also called hFcγR IIa H
T4 sequence (looked up): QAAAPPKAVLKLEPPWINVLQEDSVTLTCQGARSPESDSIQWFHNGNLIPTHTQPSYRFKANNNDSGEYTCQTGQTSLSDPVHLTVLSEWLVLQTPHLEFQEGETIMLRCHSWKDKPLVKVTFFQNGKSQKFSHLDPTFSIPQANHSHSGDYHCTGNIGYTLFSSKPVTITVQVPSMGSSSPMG
Procedure: as §1, §2

[5] = target: T5, human FcγRIa extracellular domain, His-tagged (human, UniProt P12314 16-292); assay: as above
T5 construct: also called hFcγR Ia
Procedure: as §1, §2

[6] = target: T6, human FcγRIIa, type R, extracellular domain, His-tagged (human, UniProt P12318 34-217); assay: as above
T6 construct: extracellular domain; also called hFcγR IIa R
T6 sequence (looked up): T4 sequence (looked up) with H134R
Procedure: as §1, §2

[7] = target: T7, human FcγRIIIa, allotype F158, extracellular domain, His-tagged (human, UniProt P08637 17-208); assay: as above
T7 construct: extracellular domain; also called hFcγR IIIa F
Procedure: as §1, §2

T5 sequence (P12314 16-292): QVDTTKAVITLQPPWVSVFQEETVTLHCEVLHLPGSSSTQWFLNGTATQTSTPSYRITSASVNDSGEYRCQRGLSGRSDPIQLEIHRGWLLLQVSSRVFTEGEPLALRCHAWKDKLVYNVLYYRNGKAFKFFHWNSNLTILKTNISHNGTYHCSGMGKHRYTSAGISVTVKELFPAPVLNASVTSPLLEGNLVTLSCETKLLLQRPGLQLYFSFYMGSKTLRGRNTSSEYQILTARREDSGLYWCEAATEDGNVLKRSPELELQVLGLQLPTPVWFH
T3 sequence (P08637 17-208 F176V): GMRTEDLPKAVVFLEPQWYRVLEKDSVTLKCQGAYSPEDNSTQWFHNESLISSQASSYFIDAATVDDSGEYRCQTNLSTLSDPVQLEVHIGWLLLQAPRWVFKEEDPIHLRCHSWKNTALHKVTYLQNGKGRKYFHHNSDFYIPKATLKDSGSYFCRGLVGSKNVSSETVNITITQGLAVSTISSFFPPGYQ
T7 sequence (P08637 17-208): as the sequence (P08637 17-208 F176V) above, with V160F counted along it
T2 sequence (P55899 24-290 limits assumed, chain 1 of 2): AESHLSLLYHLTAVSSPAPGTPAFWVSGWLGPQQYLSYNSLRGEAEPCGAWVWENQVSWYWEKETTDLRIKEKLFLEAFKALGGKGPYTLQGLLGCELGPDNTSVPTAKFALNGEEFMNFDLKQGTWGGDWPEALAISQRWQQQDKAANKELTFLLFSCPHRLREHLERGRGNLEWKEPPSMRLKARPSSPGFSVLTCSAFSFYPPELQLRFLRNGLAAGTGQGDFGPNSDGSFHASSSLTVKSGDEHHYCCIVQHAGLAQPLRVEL
T2 sequence (P61769 21-119 limits assumed, chain 2 of 2): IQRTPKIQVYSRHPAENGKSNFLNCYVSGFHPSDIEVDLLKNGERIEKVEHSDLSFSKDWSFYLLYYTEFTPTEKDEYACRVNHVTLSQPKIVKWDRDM

B1: 04H1637-G1m/04L1610-lam1 (antibody, human IgG1, lambda)
heavy: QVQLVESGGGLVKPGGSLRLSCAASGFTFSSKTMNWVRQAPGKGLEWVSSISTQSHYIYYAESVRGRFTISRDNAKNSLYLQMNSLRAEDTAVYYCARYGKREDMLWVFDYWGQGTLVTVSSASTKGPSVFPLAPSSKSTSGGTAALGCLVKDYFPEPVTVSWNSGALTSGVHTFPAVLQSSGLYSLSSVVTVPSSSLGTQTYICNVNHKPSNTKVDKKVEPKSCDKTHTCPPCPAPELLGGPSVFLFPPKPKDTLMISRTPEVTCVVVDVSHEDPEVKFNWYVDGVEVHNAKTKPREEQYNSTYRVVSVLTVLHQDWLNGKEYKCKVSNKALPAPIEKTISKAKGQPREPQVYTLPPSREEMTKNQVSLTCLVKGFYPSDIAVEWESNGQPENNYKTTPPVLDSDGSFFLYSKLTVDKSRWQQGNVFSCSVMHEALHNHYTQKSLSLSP
light: QSALTQPPSASGSPGQSVTISCEGPSTGVGDYNWVHWYQQHPGKAPKLMIYFTSKKPSGVPDRFSGSKSGNTASLTVSGLQAEDEADYYCQTYAAPLGPMFGGGTKLTVLGQPKAAPSVTLFPPSSEELQANKATLVCLISDFYPGAVTVAWKADSSPVKAGVETTTPSKQSNNKYAASSYLSLTPEQWKSHRSYSCQVTHEGSTVEKTVAPTECS
**Q.** Which Relative binding amount [1] does the source give for B1 here?
**A.** 1 ratio

**Q.** And the Binding amount [2]?
**A.** 0.008 RU per RU of captured antibody

**Q.** What about the “Relative value to KD between G1m and hFcRn” value (human FcRn) of the same binder?
**A.** 1 ratio

**Q.** What about the “Relative value to KD between G1m and hFcγRs” value [3] of the same binder?
**A.** 1 ratio

**Q.** And the “Relative value to KD between G1m and hFcγRs” value [4]?
**A.** 1 ratio

**Q.** And the “Relative value to KD between G1m and hFcγRs” value [5]?
**A.** 1 ratio

**Q.** What about the “Relative value to KD between G1m and hFcγRs” value [6] of the same binder?
**A.** 1 ratio

**Q.** And the “Relative value to KD between G1m and hFcγRs” value [7]?
**A.** 1 ratio

B2: 04H1654-KT462/04L1610-lam1//04H1656-HT445/04L1610-lam1 (antibody, human IgG1, lambda)
heavy 1: QVQLVESGGGVVQPGGSLRLSCAASGFTFSSKTMNWVRQAPGKGLEWVSSISTQSHYIYYARSVRGRFTISRDNAKNSLYLQMNSLRAEDTAVYYCARYGKREDMLWVFDYWGQGTLVTVSSASTKGPSVFPLAPSSKSTSGGTAALGCLVKDYFPEPVTVSWNSGALTSGVHTFPAVLQSSGLYSLSSVVTVPSSSLGTQTYICNVNHKPSNTKVDKRVEPKSCDKTHTCPPCPAPEFQWGPMVFLFPPKPKDVLMISRTPEVTCVVVDVSDEEPEVKFNWYVDGVEVHNAKTKPREEQYNATYRVVSVLPVLHQDWLNGKEYKCKVSNDALPAPIEKTISKAKGQPREPQVYTLPPSRKEMTKNQVSLTCLVKGFYPSDIAVEWESNGQPENNYKTTPPVLDSDGSFFLYSKLTVDKSRWQQGNVFSCSVMHEALHNHYTQKSLSLSP
heavy 2: QVQLVESGGGVVQPGGSLRLSCAASGFTFSSKTMNWVRQAPGKGLEWVSSISTQSHYIYYAESVRGRFTISRDNAKNSLYLQMNSLRAEDTAVYYCARYGAREDMLWVFDYWGQGTLVTVSSASTKGPSVFPLAPSSKSTSGGTAALGCLVKDYFPEPVTVSWNSGALTSGVHTFPAVLQSSGLYSLSSVVTVPSSSLGTQTYICNVNHKPSNTKVDKRVEPKSCDKTHTCPPCPAPELLAGPSVFLFPPKPKDVLMISRTPEVTCVVVDVSHEEPEVKFNWYVDGVEVHNAKTKPREEQYNATYRVVSVLPVLHQDWLNGKEYKCKVSNDALPKPDEETISKAKGQPREPQVYTLPPSREEMTKNQVSLTCLVKGFYPSDIAVEWESNGQPENNYKTTPPVLDSDGSFFLYSKLTVDKSRWQQGNVFSCSVMHEALHNHYTQESLSLSP
light: B1 light
notes: Heterodimerized IgG1 (IGHG1*03) Fc variant
**Q.** For B2, which Relative binding amount [1] is on record?
**A.** 3.1 ratio

**Q.** What about the Binding amount [2] of the same binder?
**A.** 0.025 RU per RU of captured antibody

**Q.** What about the “Relative value to KD between G1m and hFcRn” value (human FcRn) of the same binder?
**A.** 0.9 ratio

**Q.** And the “Relative value to KD between G1m and hFcγRs” value [3]?
**A.** 110 ratio

**Q.** And the “Relative value to KD between G1m and hFcγRs” value [4]?
**A.** 13.9 ratio

**Q.** What about the “Relative value to KD between G1m and hFcγRs” value [5] of the same binder?
**A.** 1.6 ratio

**Q.** And the “Relative value to KD between G1m and hFcγRs” value [6]?
**A.** 13 ratio

**Q.** What about the “Relative value to KD between G1m and hFcγRs” value [7] of the same binder?
**A.** 415 ratio

B3: 04H1637-Kn462/04L1610-lam1//04H1637-H1445/04L1610-lam1 (antibody, human IgG1, lambda)
heavy 1: B2 heavy 1 with V11L, Q13K, R62E, R219K, Y354C, K361D, M363L, T371W
heavy 2: B2 heavy 2 with V11L, Q13K, A101K, R219K, E361C, M363L, T371S, L373A, Y412V, E444K
light: B1 light
notes: Heterodimerized IgG1 Fc variant; also called 04H1637-Kn462/04L1610-lam1//04H1637-Hl445/04L1610-lam1
**Q.** Which Relative binding amount [1] does the source give for B3 here?
**A.** 3.7 ratio

**Q.** And the Binding amount [2]?
**A.** 0.03 RU per RU of captured antibody

**Q.** What about the “Relative value to KD between G1m and hFcγRs” value [3] of the same binder?
**A.** 131 ratio

**Q.** And the “Relative value to KD between G1m and hFcγRs” value [4]?
**A.** 37.5 ratio

**Q.** What about the “Relative value to KD between G1m and hFcγRs” value [5] of the same binder?
**A.** 0.6 ratio

**Q.** What about the “Relative value to KD between G1m and hFcγRs” value [6] of the same binder?
**A.** 18.7 ratio

**Q.** What about the “Relative value to KD between G1m and hFcγRs” value [7] of the same binder?
**A.** 382 ratio

B4: 04H1654-KT461/04L1610-lam1//04H1656-HT443/04L1610-lam1 (antibody, human IgG1, lambda)
heavy 1: B2 heavy 1 with I337E
heavy 2: B2 heavy 2 with K335A, D337E
light: B1 light
notes: as for B2
**Q.** What does the source list for B4?
**A.** Relative binding amount [1]: 3.1 ratio; Binding amount [2]: 0.025 RU per RU of captured antibody; Relative value to KD between G1m and hFcRn (human FcRn): 0.9 ratio; Relative value to KD between G1m and hFcγRs [3]: 156 ratio; Relative value to KD between G1m and hFcγRs [4]: 7.3 ratio; Relative value to KD between G1m and hFcγRs [5]: 1.5 ratio; Relative value to KD between G1m and hFcγRs [6]: 8.4 ratio; Relative value to KD between G1m and hFcγRs [7]: 526 ratio
